Laboratory results as given in paper PMC3655416 (Developmental cell, 2013).
Each block holds one molecule with its values, some of them ahead of it.

Legend:
[1] = target: Purified SAS-5 C-terminus (C. elegans) (UniProt Q20010); assay: SEC-MALS
[2] = target: T1, Full-length SAS-5, purified, on beads (C. elegans, UniProt Q20010 1-404); assay: pull-down
T1 sequence (looked up): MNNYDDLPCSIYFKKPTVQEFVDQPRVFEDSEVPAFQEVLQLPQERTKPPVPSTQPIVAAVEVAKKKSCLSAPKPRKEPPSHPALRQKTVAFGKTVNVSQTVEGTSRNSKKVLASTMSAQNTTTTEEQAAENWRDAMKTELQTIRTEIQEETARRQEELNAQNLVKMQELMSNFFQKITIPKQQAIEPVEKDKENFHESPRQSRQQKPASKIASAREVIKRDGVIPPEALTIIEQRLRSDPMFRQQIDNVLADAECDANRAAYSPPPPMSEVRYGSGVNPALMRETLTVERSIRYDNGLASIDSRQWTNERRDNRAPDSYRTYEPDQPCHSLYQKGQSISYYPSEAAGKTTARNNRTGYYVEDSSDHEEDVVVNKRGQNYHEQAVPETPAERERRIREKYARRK

[3] = target: the molecule itself; assay: SEC

stoichiometry N [1]: 2
Molecule: Purified SAS-5 C-terminus (from UniProt Q20010 1-404) (domain or fragment)

stoichiometry N [2]: 2 SAS-6:SAS-5
B1: Full-length WT SAS-6, purified (natural protein, C. elegans, UniProt O62479 1-492, looked up)
chain: MTSKIALFDQTLIASLLQPLSLNQPDFKAYKTKVKLKISEQRNETSGEKELKFEISRSDDFEFLFSETLNNEKYQILARDHDLTVDFDAFPKVIIQHLLCKNIVKNLEEDGEVDARKKAGYHSIADPGKPTEINIILDAEKNFCSFELFSKTPISKGKIFSIKLHAVRGDHLISHLLKICSSQAVKLSTFYKSADELASLRQKCGDLEKQVEKLSGVKEEFEEMSEKFKELEDEVELVKEERENIRLLVEDKEDEVADLKQDTESLQKQLEENQEELEIVGNMLREEQGKVDQLQKRNVAHQKEIGKLRAELGTAQRNLEKADQLLKRNSQQQNQQSLDMRKLGELEADLKEKDSMVESLTETIGILRKELENEKLKAAENMDSFEKLSMENENLKEKIAHYRAQRFSPAPSGLPGLQTGLTNRLTPSFKPVLGPHTPYGANLNSRTPFRDNTTLNFQNSTIATPHAFRFNSQLIADETTGSSVTNTPPAQR

B2: WT SAS-6^1-389, purified (domain or fragment, C. elegans, UniProt O62479 1-389, looked up)
chain: MTSKIALFDQTLIASLLQPLSLNQPDFKAYKTKVKLKISEQRNETSGEKELKFEISRSDDFEFLFSETLNNEKYQILARDHDLTVDFDAFPKVIIQHLLCKNIVKNLEEDGEVDARKKAGYHSIADPGKPTEINIILDAEKNFCSFELFSKTPISKGKIFSIKLHAVRGDHLISHLLKICSSQAVKLSTFYKSADELASLRQKCGDLEKQVEKLSGVKEEFEEMSEKFKELEDEVELVKEERENIRLLVEDKEDEVADLKQDTESLQKQLEENQEELEIVGNMLREEQGKVDQLQKRNVAHQKEIGKLRAELGTAQRNLEKADQLLKRNSQQQNQQSLDMRKLGELEADLKEKDSMVESLTETIGILRKELENEKLKAAENMDSFEKLS
binding result [3]: binds
